The results in this text go back to patent US20240336673A1 (WEST VIRGINIA UNIVERSITY BOARD OF GOVERNERS ON BEHALF OF …, published 2024).

The target in assay [1] is T1, purified recombinant FliC from P. aeruginosa (polyHis-tag FliC protein, gene from P. aeruginosa PAO1) (Pseudomonas aeruginosa PAO1, UniProt P72151 1-488).
T1 construct: also called P. aeruginosa flagellin; purified FliC protein from P. aeruginosa; not shown: polyhistidine tag
T1 sequence: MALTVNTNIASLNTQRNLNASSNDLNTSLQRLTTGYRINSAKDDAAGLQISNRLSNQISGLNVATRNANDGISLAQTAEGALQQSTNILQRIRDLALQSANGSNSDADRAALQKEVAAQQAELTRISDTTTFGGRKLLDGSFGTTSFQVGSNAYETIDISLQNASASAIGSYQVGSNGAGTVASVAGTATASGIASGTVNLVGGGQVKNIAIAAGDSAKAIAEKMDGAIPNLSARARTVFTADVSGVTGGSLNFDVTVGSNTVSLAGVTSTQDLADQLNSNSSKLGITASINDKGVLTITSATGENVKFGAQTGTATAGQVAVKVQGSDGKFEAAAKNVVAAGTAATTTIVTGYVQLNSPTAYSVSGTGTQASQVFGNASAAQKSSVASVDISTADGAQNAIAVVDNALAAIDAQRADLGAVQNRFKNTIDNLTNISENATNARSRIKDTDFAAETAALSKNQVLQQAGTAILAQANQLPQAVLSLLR
The assay is described as follows: direct ELISA of hybridoma supernatant on coated recombinant FliC. (In general: ELISA stands for enzyme-linked immunosorbent assay.)

For assay [2], the target named is T2, FliC protein at the surface of P. aeruginosa PAO1 (Pseudomonas aeruginosa PAO1, UniProt P72151 1-488).
T2 construct: whole, on cells; Native protein on whole bacteria or in lysates; also called P. aeruginosa PAO1 flagellin; type b flagellin
T2 sequence: T1 sequence
The assay is described as follows: direct ELISA of hybridoma supernatant on whole P. aeruginosa PAO1.

B1: WVDC-2109 (antibody, V domains shown)
VH: EVQLQESGAELVKPGASVKLSCKASGYTFTSYWMHWVKQRPGQGLEWIGMIRPNSGSTNYNEKFKSKATLTVDKSSSTAYMQLSSPTSEDSAVYYCARRGYGSSYGYYAMDYWGQGTSVTVSS
VL: DIVVTQTTSSLSASLGDRVTISCRASQDISNYLNWYQQKPDGTVKLLINYTSRLNSGVPSRFSGSGSGTDYSLTISNLEQEDIATYFCQQGNTLPWTFGGGTKLE
notes: also called anti-FliC mAb; mAb WVDC-2109
B1: the binding result in assay [1] and in assay [2] was “binds” in each case.
